The results in this text go back to patent US20140147418A1.

For this assay, the target named is B7.1 on mouse macrophages (CRL-2751) (mouse) (UniProt Q00609). Put plainly: flow cytometry on mouse macrophages stained with FITC anti-B7-1 after medium from naive HEK-293 cells. Background: A flow cytometer gives signals particle by particle.
UniProt Q00609, sequence (Q00609 38-306): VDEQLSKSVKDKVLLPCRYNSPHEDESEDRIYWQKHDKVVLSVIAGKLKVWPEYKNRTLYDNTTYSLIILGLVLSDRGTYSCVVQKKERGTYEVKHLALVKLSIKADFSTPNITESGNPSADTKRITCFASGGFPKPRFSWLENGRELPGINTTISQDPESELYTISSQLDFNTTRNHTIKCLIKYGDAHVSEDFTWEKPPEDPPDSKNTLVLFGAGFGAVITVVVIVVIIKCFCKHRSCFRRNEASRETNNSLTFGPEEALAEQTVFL

On to “Armenian hamster IgG FITC-conjugated anti B7-1 (Santa Cruz Biotechnology) (antibody)”, for which the percent of macrophages B7-positive in the absence of CTLA4IgG was 18%.
